Measurements from patent US20260062442A1, “COMPOSITIONS AND METHODS FOR PURIFYING ANTIGEN-BINDING ANTIBODY FRAGMENTS USING PEPTIDE LIGANDS” (North Carolina State University, priority 2022, published 2026).
Ends that are not written are not given here.

Experiments:
human polyclonal Fab [1] = test: Dynamic binding of human polyclonal Fab on peptide-Toyopearl resins (chromatograms); details: residence time 2 min; for amount of human Fab that flowed through: human Fab at 2 mg/mL in PBS; for binding of human polyclonal Fab (chromatogram): human polyclonal Fab at 2 mg/mL in PBS
Protocol: (§1) Dynamic binding of human Fab-κ and Fab-λ in non-competitive condition. The peptides listed in Table 3 were synthesized on Toyopearl resins as described herein, and the resulting adsorbents were packed into 0.1 mL (30×2.1 mm) columns, installed on a Waters Alliance 2695 HPLC system (Milford, MA), and equilibrated with PBS at pH 7.4. […] The subsequent chromatographic steps of washing with PBS, elution with 0.2 M acetate buffer pH 4, regeneration with 0.1 M glycine buffer pH 2.5, and equilibration with PBS were all performed at 348 cm/h. The dynamic binding protocol was repeated with 50 μL of human Fab-κ and Fab-λ, both at 1 mg/mL in PBS. The column effluent was continuously monitored at 280 nm by UV spectrophotometry. The yield was determined by peak area analysis and determined by taking the area of the elution peak divided by the flow-through, elution, and regeneration peak areas. Finally, the dynamic binding capacity at 10% flowthrough of […]-Toyopearl resin was measured via continuous loading of a solution of human polyclonal Fab at either 1, 2, or 5 mg/mL in PBS at the linear velocity of either 173, 87, or 35 cm/h, corresponding to the residence times (RT) of 1, 2, and 5 min, until reaching saturation of the adsorbent. The dynamic binding capacity of Protein L-agarose resin was measured via continuous loading of human polyclonal Fab at 1 mg/mL in PBS at the linear velocity of either 173 or 87 cm/h, corresponding to RT of 1 and 2 min, until reaching saturation of the adsorbent.
Secondary selection of Fab-binding peptide ligands via dynamic binding studies. The candidate ligands selected from library screening were conjugated to Toyopearl AF-Amino-650M resin and evaluated via Fab binding studies in dynamic mode. Toyopearl resin was selected for chromatographic evaluation owing to its low non-specific protein adsorption, low compressibility, and strong chemical stability. The residence time of 2 minutes (RT: 2 min) was adopted to mimic the loading conditions utilized in industrial bioprocessing. A solution of human polyclonal Fab at 2 mg/mL in PBS was adopted as feedstock to discern ligands that either bind all Fab or target selectively Fab-κ or Fab-λ; accordingly, the top ligands by elution peak area were subjected to further analysis with either pure k or λ subtypes. Finally, in line with library screening, A 0.2 M acetate buffer was utilized at pH 4 for Fab elution; this value of pH is sufficient to ensure high yield without compromising the integrity and bioactivity of the product. This represents a distinct advantage of peptide ligands with moderate affinity compared to high-affinity protein ligands; for comparison, Protein L as well as KappaSelect and LambdaFabSelect resins require elution at pH 2.5-3.

monoclonal Fab-κ = details: cited from earlier work
[2] = biological target: engineered monoclonal Fab-κ (0.171 mg/mL in clarified CHO-K1 cell culture harvest); test: capture from CHO-K1 CCCF with engineered Fab 0.171 mg/mL, elution pH 2.5; yield by anti-human Fab ELISA
human Fab-κ = test: Dynamic binding of human Fab-κ in non-competitive condition on peptide-Toyopearl resins; details: κ and λ Fabs, 1 mg/mL in PBS, residence time 2 min
Protocol: as §1, with “The dynamic binding capacity of Protein L-agarose resin was measured via continuous loading of human polyclonal Fab at 1 mg/mL in PBS at the linear velocity of either 173 or 87 cm/h, corresponding to RT of 1 and 2 min, until reaching saturation of the adsorbent.” left out

human polyclonal Fab [3] = test: Dynamic binding capacity at 10% breakthrough with human polyclonal Fab in PBS; details: RT of 2 min, range
Protocol: as §1, with “The dynamic binding capacity of Protein L-agarose resin was measured via continuous loading of human polyclonal Fab at 1 mg/mL in PBS at the linear velocity of either 173 or 87 cm/h, corresponding to RT of 1 and 2 min, until reaching saturation of the adsorbent.” left out

scFv13R4 = test: Purification of scFv from P. pastoris perfusate; details: scFv eluted at 0.1 M glycine pH 2.5, not at pH 4
Protocol: Preparation of spiked feedstock. A wild-type X33 P. pastoris strain was obtained from ThermoFisher Scientific as an agar stab. This stab was used to create freezer stocks, which were stored at −80° C. A vial from the freezer stock was thawed, plated on a yeast extract peptone dextrose (YPD) agar plate, and incubated at 30° C. A single colony was then used to inoculate a 1 L vented shake flask containing 100 mL of Buffered Glycerol-complex Medium (BMGY), and the flask was incubated at 250 rpm at 30° C. A 300 mL bioreactor connected to a perfusion device was prepared and inoculated with cells harvested from the shake flask. After an initial growth phase, the perfusion system was activated, and fluid was continuously extracted from the bioreactor at a rate of 1.5 vessel volumes per day (VVD) while retaining the cells. Simultaneously to activating the perfusion system, a 2% v/v methanol feedstock containing IgG at 0.5 mg/mL began to be fed continuously into the bioreactor at 1.5 VVD. […]
Purification of scFv from P. pastoris perfusate. […] Washing, elution, and regeneration steps were all performed at 0.5 mL/min (231 cm/h), while the effluent was continuously monitored by UV spectrophotometry at 280 nm. […] The collected fractions were analyzed via non-reducing SDS-PAGE analysis after concentration and diafiltration to PBS at pH 7.4 by a 10 kDa MWCO spin concentrator.

human Fab-κ (human) [4] = test: equilibrium adsorption isotherm on resin, Langmuir fit
human Fab-λ (human) [5] = test: dynamic binding on peptide-Toyopearl column, Fab 1 mg/mL in PBS, residence time 2 min, elution pH 4; yield = elution peak area over total peak area
human Fab-κ (human) [6] = test: as above
[7] = biological target: human polyclonal Fab (human); test: capture from null CHO-S CCCF spiked with human Fab 1 mg/mL, elution pH 4; yield by anti-human Fab ELISA
[8] = biological target: human polyclonal Fab (human); test: dynamic binding capacity at 10% breakthrough, Fab 5 mg/mL in PBS, residence time 1 min
[9] = biological target: human polyclonal Fab (human); test: dynamic binding capacity at 10% breakthrough, Fab 1 mg/mL in PBS, residence time 1 min
[10] = biological target: human polyclonal Fab (human); test: dynamic binding capacity at 10% breakthrough, Fab 1 mg/mL in PBS, residence time 2 min
[11] = biological target: engineered monoclonal Fab-κ (0.171 mg/mL in clarified CHO-K1 cell culture harvest); test: capture from CHO-K1 CCCF with engineered Fab 0.171 mg/mL, elution pH 4; yield by anti-human Fab ELISA
Certolizumab pegol [12] = test: capture from null CHO-S CCCF spiked with Certolizumab 1 mg/mL, elution pH 4; yield by anti-human Fab ELISA
[13] = biological target: human polyclonal Fab (human); test: dynamic binding capacity at 10% breakthrough, Fab 2 mg/mL in PBS, residence time 2 min
human Fab-λ (human) [14] = test: dynamic binding on peptide-Toyopearl column, Fab 1 mg/mL in PBS, residence time 2 min
human Fab-κ (human) [15] = test: as above
[16] = biological target: human polyclonal Fab (human); test: equilibrium adsorption isotherm on resin, Langmuir fit
[17] = biological target: human polyclonal Fab (human); test: dynamic binding capacity at 10% breakthrough, Fab 1 mg/mL in PBS, residence time 5 min
Certolizumab pegol [18] = test: capture from CHO-S CCCF spiked with Certolizumab 1 mg/mL, elution pH 4
[19] = biological target: human polyclonal Fab (human); test: dynamic binding capacity at 10% breakthrough, Fab 5 mg/mL in PBS, residence time 2 min
[20] = biological target: human polyclonal IgG (human); test: capture of IgG 0.5 mg/mL from P. pastoris perfusate, elution pH 4; yield by Protein G HPLC
[21] = biological target: human polyclonal IgG (human); test: dynamic binding capacity at 10% breakthrough, P. pastoris perfusate with IgG 0.5 mg/mL, residence time 2 min
[22] = biological target: human polyclonal Fab (human); test: dynamic binding on peptide-Toyopearl column, human Fab 2 mg/mL in PBS, residence time 2 min

In the case of “HQNHHSTFRWEIY [C7, variant peptide ligand developed by Nascimento et al]”, the “amount of human Fab that flowed through” value (human polyclonal Fab [1]) is reported as 79%.

In the case of “WIPNSEFEHERTK [B1, peptide ligand for monoclonal Fab-κ identified by Nascimento et al]”, the “affinity for two other monoclonal Fabs” value (monoclonal Fab-κ) is listed as “little-to-no affinity” and the “binding of human polyclonal Fab (chromatogram)” value (human polyclonal Fab [1]) is listed as “failed to bind”.

Work on Protein L-agarose resin yielded a Yield [2] of 91%.

For “WHYNWQDVSDRQ [A5, variant peptide ligand developed by Nascimento et al]”, the “amount of human Fab that flowed through” value (human polyclonal Fab [1]) was 61%.

For IIHRRAFWWFPN, the “fraction of the loaded Fab bound” value (human Fab-κ) was “approximately half”.

For FRWNFHRNTFFP, the “binding of human polyclonal Fab (chromatogram)” value (human polyclonal Fab [1]) was “very low flow-through peak area”, the DBC10% (human polyclonal Fab [3]) was 6 to 16 mg/mL and the “fraction of the loaded Fab bound” value (human Fab-κ) was “approximately 90%”. The “relative affinity for scFv vs Fab” value (scFv13R4) was “higher affinity for scFv than Fab”.

With Protein L-Sepharose resin the Kd (human Fab-κ (human) [4]) was 30.9 nM and the Qmax (mg per mL of resin) (human Fab-κ (human) [4]) was 20.7.

B1: … (peptide)
peptide: IRHHNIWFNTIA
modifications: also: C-terminus attached to Toyopearl AF-Amino-650M resin or ChemMatrix bead
With B1 the Fab-λ Yield (human Fab-λ (human) [5]) was 42% and the Fab-κ Yield (human Fab-κ (human) [6]) was 42%.

B2: … (peptide)
peptide: FRWNFHRNTFFP
modifications: also: C-terminus attached to Toyopearl AF-Amino-650M resin or ChemMatrix bead
Molecule B2 has a Yield [7] of 94.1%, a DBC10% (mg Fab per mL of resin) [8] of 15.5 and a DBC10% (mg Fab per mL of resin) [9] of 4.5. It also gave a Fab-λ Yield (human Fab-λ (human) [5]) of 91%, a Fab-κ Yield (human Fab-κ (human) [6]) of 89% and a DBC10% (mg Fab per mL of resin) [10] of 6. For the same molecule, the Yield [11] was 93.3%, the Yield (Certolizumab pegol [12]) was 96% and the DBC10% (mg Fab per mL of resin) [13] was 10.9. For the same molecule, the percent of the load bound (human Fab-λ (human) [14]) was 90%, the percent of the load bound (human Fab-κ (human) [15]) was 90% and the Kd [16] was 2160 nM. For the same molecule, the Qmax (mg per mL of resin) [16] was 20.4, the Kd (human Fab-κ (human) [4]) was 2050 nM and the Qmax (mg per mL of resin) (human Fab-κ (human) [4]) was 19. The DBC10% (mg Fab per mL of resin) [17] was 7, the Yield (Certolizumab pegol [18]) was 96.5% and the DBC10% (mg Fab per mL of resin) [19] was 16.5. The Yield [20] was 33%, the DBC10% (mg IgG per mL of resin) [21] was 13.4 and the DBC10% (mg IgG per mL resin) [21] was 13.4.

B3: … (peptide)
peptide: IIHRRAFWWFPN
modifications: also: C-terminus attached to Toyopearl AF-Amino-650M resin or ChemMatrix bead
B3 gave a Fab-λ Yield (human Fab-λ (human) [5]) of 66%, a Fab-κ Yield (human Fab-κ (human) [6]) of 55% and a Kd [16] of 5140 nM. For the same molecule, the Qmax (mg per mL of resin) [16] was 13.5, the Kd (human Fab-κ (human) [4]) was 5820 nM and the Qmax (mg per mL of resin) (human Fab-κ (human) [4]) was 11.9.

B4: … (peptide)
peptide: RWTIWPPNWHPP
modifications: also: C-terminus attached to Toyopearl AF-Amino-650M resin or ChemMatrix bead
Work on B4 yielded a Fab-λ Yield (human Fab-λ (human) [5]) of 53% and a Fab-κ Yield (human Fab-κ (human) [6]) of 40%.

B5: … (peptide)
peptide: WHYNWQDVSDRQ
modifications: also: attached to Toyopearl resin, site not given here
Molecule B5 has a percent of human Fab that flowed through (unbound) [22] of 61%.

B6: … (peptide)
peptide: HQNHHSTFRWEIY
modifications: also: attached to Toyopearl resin, site not given here
In the case of B6, the percent of human Fab that flowed through (unbound) [22] is reported as 79%.
